According to the supplement of paper PMC9112550, “Optimization of the antimicrobial peptide Bac7 by deep mutational scanning” (BMC Biology, 2022):

system: Escherichia coli TOP10; assay: shrunken log2 fold change of peptide-encoding DNA abundance (4.5 h post-induction vs induction); higher = less antimicrobial activity (less host growth inhibition); conditions: time post-induction: 4.5 h; library: site-saturation at positions 5, 18, 19, 20
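Further: peptides expressed intracellularly from a pBAD plasmid library in pooled LB shake-flask culture, induced with 0.3% L-arabinose, DNA abundance read by NGS, three biological replicates, DESeq2 with apeglm shrinkage.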

Sequence	shrunken log2 fold change
RRIRVRPPRLPRPRPRPIMCPRP	0.0128
RRIRGRPPRLPRPRPRPMAPPRP	1.2
RRIRARPPRLPRPRPRPYCMPRP	-0.495
RRIRYRPPRLPRPRPRPQWWPRP	0.0898
RRIRSRPPRLPRPRPRPQDHPRP	-0.794
RRIRWRPPRLPRPRPRPVHRPRP	0.181
RRIRTRPPRLPRPRPRPADLPRP	0.0274
RRIRWRPPRLPRPRPRPDWFPRP	0.147
RRIRYRPPRLPRPRPRPTESPRP	0.0538
RRIRNRPPRLPRPRPRPETDPRP	-0.05
RRIRHRPPRLPRPRPRPIMLPRP	-0.389
RRIRLRPPRLPRPRPRPGICPRP	0.126
RRIRARPPRLPRPRPRPVGVPRP	0.528
RRIRWRPPRLPRPRPRPSPNPRP	0.106
RRIRIRPPRLPRPRPRPHEFPRP	-0.241
RRIRLRPPRLPRPRPRPTHVPRP	0.329
RRIRCRPPRLPRPRPRPCTRPRP	-0.321
RRIRVRPPRLPRPRPRPTNRPRP	3.75
RRIRWRPPRLPRPRPRPVWKPRP	0.0259
RRIRGRPPRLPRPRPRPRTNPRP	0.588
RRIRERPPRLPRPRPRPIWAPRP	0.639
RRIRSRPPRLPRPRPRPRSHPRP	-0.203
RRIRYRPPRLPRPRPRPCQQPRP	-0.163
RRIRFRPPRLPRPRPRPWYVPRP	-0.757
RRIRVRPPRLPRPRPRPNEYPRP	-0.487

Sequence	shrunken log2 fold change
RRIRRRPPRLPRPRPRPEKKPRP	0.0396
RRIRLRPPRLPRPRPRPTEMPRP	0.037
RRIRCRPPRLPRPRPRPAIPPRP	-0.246
RRIRYRPPRLPRPRPRPNSDPRP	-0.233
RRIRIRPPRLPRPRPRPFVGPRP	-0.134
RRIRRRPPRLPRPRPRPDAVPRP	0.462
RRIRLRPPRLPRPRPRPLCPPRP	-0.0651
RRIRGRPPRLPRPRPRPASHPRP	0.252
RRIRCRPPRLPRPRPRPIQQPRP	-0.0847
RRIRYRPPRLPRPRPRPDPDPRP	-0.162
RRIRTRPPRLPRPRPRPDWWPRP	0.016
RRIRNRPPRLPRPRPRPDKIPRP	0.159
RRIRPRPPRLPRPRPRPHMCPRP	-0.082
RRIRLRPPRLPRPRPRPPVPPRP	0.374
RRIRIRPPRLPRPRPRPWLDPRP	-0.353
RRIRYRPPRLPRPRPRPVMGPRP	-0.0133
RRIRDRPPRLPRPRPRPALCPRP	0.225
RRIRDRPPRLPRPRPRPNMNPRP	-0.41
RRIRHRPPRLPRPRPRPMSGPRP	-0.0285
RRIRDRPPRLPRPRPRPHLCPRP	-0.0584
RRIRTRPPRLPRPRPRPMRHPRP	0.00372
RRIRIRPPRLPRPRPRPHVCPRP	0.41
RRIRHRPPRLPRPRPRPVMTPRP	-0.496
RRIRFRPPRLPRPRPRPQYCPRP	-0.943
RRIRGRPPRLPRPRPRPIKYPRP	0.00555

Sequence	shrunken log2 fold change
RRIRPRPPRLPRPRPRPLEYPRP	-0.56
RRIRYRPPRLPRPRPRPTVFPRP	-0.317
RRIRIRPPRLPRPRPRPMIWPRP	-0.0224
RRIRYRPPRLPRPRPRPDRLPRP	-0.216
RRIRKRPPRLPRPRPRPICTPRP	-0.0207
RRIRMRPPRLPRPRPRPLVRPRP	0.51
RRIRERPPRLPRPRPRPNSGPRP	-0.463
RRIRCRPPRLPRPRPRPTCSPRP	-0.157
RRIRIRPPRLPRPRPRPYHYPRP	-0.415
RRIRARPPRLPRPRPRPEQLPRP	1.47
RRIRSRPPRLPRPRPRPYILPRP	-0.69
RRIRQRPPRLPRPRPRPPVVPRP	0.126
RRIRQRPPRLPRPRPRPQCKPRP	-0.102
RRIRQRPPRLPRPRPRPHQMPRP	0.0681
RRIRSRPPRLPRPRPRPPFSPRP	-0.217
RRIRNRPPRLPRPRPRPYSDPRP	-0.031
RRIRDRPPRLPRPRPRPECLPRP	0.0572
RRIRYRPPRLPRPRPRPIGNPRP	0.167
RRIRFRPPRLPRPRPRPKKYPRP	-0.242
RRIRMRPPRLPRPRPRPSNPPRP	0.155
RRIRCRPPRLPRPRPRPMYPPRP	-0.375
RRIRYRPPRLPRPRPRPWFWPRP	-0.0261
RRIRDRPPRLPRPRPRPMHMPRP	-0.0583
RRIRSRPPRLPRPRPRPNDYPRP	-1.18
RRIRMRPPRLPRPRPRPCGAPRP	1.15
